Data taken from PMC7380489 (NAR Cancer, 2020).

B1: human TRIM28 RBCC domain R184D (domain or fragment)
chain: CGVCRERLRPEREPRLLPCLHSACSACLGPAAPAAANSSGDGGAAGDGTVVDCPVCKQQCFSKDIVENYFMRDSGSKAATDAQDANQCCTSCEDNAPATSYCVECSEPLCETCVEAHQDVKYTKDHTVRSTGPAKSRDGERTVYCNVHKHEPLVLFCESCDTLTCRDCQLNAHKDHQYQFLEDAVRNQRKLLASLVKRLGDKHATLQKSTKEVRSSIRQVSDVQKRVQVDVKMAILQIMKELNKRGRVLVNDAQKVTEGQQERLERQHWTMTKIQKHQEHILRFASWALESDNNTALLLSKKLIYFQLHRAL
B2: mouse ZFP568 residues 1-105 containing the first KRAB domain (1K) (domain or fragment)
chain: not shown

Legend:
AUC = molecular target: the molecule itself; assay: AUC
[1] = molecular target: B1; assay: AUC

| Binder | stoichiometry N (AUC) | stoichiometry N [1] |
| --- | --- | --- |
| B1 | 2 |  |
| B2 |  | 2 RBCC chains per 1K (2:1) |
